Data as given in the Human Domainome abundance scans (Beltran et al. 2025).
± gives the uncertainty stated by the source.

B1: Membrane-associated guanylate kinase, WW and PDZ domain-containing protein 1, residues 352 to 401; numbered along this chain, Q96QZ7 (parent)
chain: TEELDSELELPAGWEKIEDPVYGIYYVDHINRKTQYENPVLEAKRKKQLE

Variants of: B1
Assay: abundance fitness (aPCA) (normalised: wild type 0, dead -1); higher = more abundant; growth selection in yeast, the domain comes from the species named
Conditions: Homo sapiens

Variant	abundance fitness
K16M	-0.206 ± 0.1
K16W	-0.802 ± 0.081
K16T	-0.49 ± 0.08
K16P	-1.11 ± 0.43
K16E	-0.327 ± 0.095
K16Y	-0.902 ± 0.18
K16L	-0.447 ± 0.079
K16S	-0.445 ± 0.044
K16G	-0.561 ± 0.045
K16C	-0.245 ± 0.042
K16A	-0.474 ± 0.087
K16H	-1.03 ± 0.34
K16F	-0.688 ± 0.27
K16Q	-0.2 ± 0.1
K16V	-0.292 ± 0.052
K16I	-0.134 ± 0.13
K16D	-0.756 ± 0.17
I17C	-0.252 ± 0.077
I17Y	-0.06 ± 0.11
I17L	-0.065 ± 0.069
I17H	-0.241 ± 0.11
I17P	-0.836 ± 0.14
I17T	-0.266 ± 0.058
I17A	-0.227 ± 0.062

Variant	abundance fitness
I17M	-0.041 ± 0.048
I17W	-0.322 ± 0.04
I17R	-0.01 ± 0.057
I17N	-0.604 ± 0.14
I17G	-0.602 ± 0.058
I17F	-0.258 ± 0.098
I17Q	-0.809 ± 0.16
I17D	-0.637 ± 0.095
I17E	-0.408 ± 0.059
I17S	-0.484 ± 0.061
I17V	0.072 ± 0.065
V27E	-0.229 ± 0.056
V27I	-0.178 ± 0.098
V27H	-0.307 ± 0.061
V27K	0.044 ± 0.062
V27A	-0.096 ± 0.06
V27C	-0.055 ± 0.062
V27G	-0.378 ± 0.04
V27D	0.071 ± 0.084
E7S	-0.153 ± 0.077
E7R	-0.037 ± 0.044
E7V	0.03 ± 0.044
E7K	0.111 ± 0.1
E7A	0.056 ± 0.062

Variant	abundance fitness
E7T	0.053 ± 0.071
E7F	-0.236 ± 0.068
E7P	-0.217 ± 0.091
E7G	0.05 ± 0.045
E7W	-0.181 ± 0.094
E7N	-0.228 ± 0.14
E7M	-0.046 ± 0.098
E7I	-0.314 ± 0.12
E7L	-0.057 ± 0.071
E7Q	-0.404 ± 0.11
E7Y	-0.399 ± 0.12
E7H	-0.217 ± 0.072
E7D	-0.039 ± 0.072
L8G	-0.15 ± 0.049
L8K	0.095 ± 0.11
L8F	-0.091 ± 0.058
L8T	-0.105 ± 0.097
L8S	-0.22 ± 0.07
L8V	-0.266 ± 0.064
L8M	-0.023 ± 0.078
L8H	-0.15 ± 0.11
L8D	-0.505 ± 0.046
L8A	-0.042 ± 0.049
L8E	-0.2 ± 0.058

Variant	abundance fitness
L8I	-0.361 ± 0.11
L8Y	-0.103 ± 0.067
L8N	-0.561 ± 0.23
L8P	-0.248 ± 0.083
L8Q	-0.016 ± 0.046
L8W	-0.12 ± 0.07
D19C	-0.015 ± 0.044
D19Q	-0.66 ± 0.051
D19Y	-0.861 ± 0.078
D19S	-0.163 ± 0.063
D19I	-0.633 ± 0.05
D19G	-0.596 ± 0.044
D19K	-0.579 ± 0.2
D19M	-0.845 ± 0.068
D19A	-0.551 ± 0.086
D19L	-0.985 ± 0.11
D19N	-0.611 ± 0.16
D19W	-1.03 ± 0.085
D19H	-0.114 ± 0.094
D19R	-0.855 ± 0.085
W14A	-0.686 ± 0.092
W14E	-0.416 ± 0.057
W14P	-0.598 ± 0.046
W14S	-0.46 ± 0.078

Variant	abundance fitness
W14Q	-0.631 ± 0.11
W14F	-0.458 ± 0.14
W14Y	-0.775 ± 0.24
W14V	-0.5 ± 0.044
W14R	-0.438 ± 0.038
W14N	0.02 ± 0.13
W14D	-0.539 ± 0.12
W14I	0.071 ± 0.13
W14T	-0.254 ± 0.081
W14K	-0.45 ± 0.12
W14H	-0.592 ± 0.079
W14L	-0.897 ± 0.08
W14C	-0.324 ± 0.092
W14G	-0.475 ± 0.048
P20M	-0.314 ± 0.081
P20E	-0.426 ± 0.33
P20W	-0.339 ± 0.35
A12H	0.07 ± 0.1
A12Y	-0.38 ± 0.11
A12T	-0.145 ± 0.086
A12F	0.107 ± 0.093
A12G	-0.073 ± 0.057
A12L	-0.003 ± 0.056
A12Q	-0.237 ± 0.096

Variant	abundance fitness
A12S	-0.038 ± 0.054
A12P	-0.098 ± 0.073
A12K	-0.113 ± 0.11
A12E	0.129 ± 0.052
A12C	0.12 ± 0.085
A12V	0.019 ± 0.068
A12D	-0.09 ± 0.12
A12W	-0.104 ± 0.048
A12R	0.016 ± 0.041
A12I	0.02 ± 0.072
A12M	-0.594 ± 0.15
Y26R	-0.549 ± 0.047
Y26P	-0.404 ± 0.052
Y26T	-0.457 ± 0.1
Y26G	-0.395 ± 0.055
Y26A	-0.321 ± 0.044
Y26M	-0.552 ± 0.08
Y26I	-0.982 ± 0.15
Y26F	-0.137 ± 0.071
Y26S	-0.337 ± 0.065
Y26N	-0.54 ± 0.16
Y26L	-0.741 ± 0.074
Y26E	-0.213 ± 0.054
Y26W	-0.257 ± 0.055

Variant	abundance fitness
Y26K	-0.563 ± 0.056
Y26Q	-0.385 ± 0.069
Y26V	-0.668 ± 0.05
E18S	-0.33 ± 0.081
E18G	-0.459 ± 0.047
E18R	-0.461 ± 0.039
E18P	-0.549 ± 0.13
E18M	-0.231 ± 0.054
E18Y	-0.39 ± 0.13
E18F	-0.263 ± 0.067
E18Q	-0.794 ± 0.45
E18C	-0.132 ± 0.091
E18I	-0.196 ± 0.11
E18L	-0.311 ± 0.062
E18V	-0.1 ± 0.068
E18W	-0.745 ± 0.12
E18N	-0.03 ± 0.097
E18K	-0.269 ± 0.12
E18H	-0.094 ± 0.086
E18T	0.001 ± 0.08
E18D	-0.15 ± 0.073
E18A	-0.014 ± 0.069
I24E	0.067 ± 0.082
